In assay [1] the target is mussel foot protein-3 slow (mfp-3s), hydrophobic variant (Mytilus californianus). In words: surface forces apparatus.
The target is the same in assay [2]. In words: QCM-D.

Substance “rat-tail tropocollagen type-1 (COL1A1) (from UniProt P02454 152-1207; P02466 86-1125) (natural protein)” gave a cohesive energy Wc of mfp-3s films with COL1A1 between them in assay [1] of 7.2 mJ/m^2. In assay [2], this substance gave an adsorbed hydrated mass after adding mfp-3s to TiO2 pre-exposed to COL1A1 of 209 ng/cm^2 and a total adsorbed hydrated mass of COL1A1/mfp-3s on TiO2 of 445 ng/cm^2.

Consider “mussel foot protein-3 slow (mfp-3s), hydrophobic variant (natural protein)”, for which the cohesive energy Wc (tc ~ 2 min) in assay [1] amounted to 5.4 mJ/m^2.

The values are drawn from publication PMC4361793.
